In the supplement of paper PMC6755084:

B1: minF1; the commonest letter at each place (parent)
chain: GAGACCGCAACTGAAAAGTTGTTATCAGAAATGGATGGGTTGAATTTCTGCACGTAGAAGCAAAAGGC

Variants of: B1
Assay: fraction ligated after 30 min (ligated reads / total reads); higher = more ligase activity
Conditions: with F1*subA RNA substrate (template-directed ligation), 42 °C
Method in brief: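 Fraction ligated for every variant was calculated as the share of total reads that came from ligated RNA. Minimized ligase ribozyme variants were made from oligo-pool templates by PCR amplification, T7 transcription and gel purification. After gel separation of ligated and unligated RNAs, reverse transcription with barcoded primers and MiSeq sequencing followed. Only core bases at quality ≥30 passed filtering.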

First: A35T G37T
Second: T32C G34C
The fraction ligated of the first is lower: 0.00238 for the first, 0.00341 for the second.

First: T32C G34T
Second: T32C G34A
The fraction ligated of the first is higher: 0.00428 for the first, 0.00321 for the second.

Going from T32C G42A to T32C G42C, the fraction ligated falls from 0.00418 to 0.00351.

Compared with T32C G42T, G33A G37A is higher in fraction ligated: 0.0036 for the first, 0.00769 for the second.

First: G33A G37T
Second: G33A G37C
The fraction ligated of the first is higher: 0.0175 for the first, 0.00669 for the second.

Going from A35C A44G to A35C A44T, the fraction ligated rises from 0.00784 to 0.0114.

Going from A35C A44C to T32A A43C, the fraction ligated rises from 0.00567 to 0.0118.

Compared with T32A A43G, T32A A43T is higher in fraction ligated: 0.0134 for the first, 0.0778 for the second.

Going from G33T A44C to G33T A44G, the fraction ligated rises from 0.149 to 0.249.

Compared with G33T A44T, G34T A44T is lower in fraction ligated: 0.299 for the first, 0.00748 for the second.

Going from G34T A44G to G34T A44C, the fraction ligated falls from 0.00592 to 0.00445.

Compared with A35T A43C, A35T A43G is lower in fraction ligated: 0.00462 for the first, 0.0022 for the second.

First: A35T A43T
Second: G34A G37A
The fraction ligated of the first is higher: 0.00405 for the first, 0.00394 for the second.

First: G34A G37C
Second: G34A G37T
The fraction ligated of the first is lower: 0.00312 for the first, 0.00793 for the second.

Compared with T32A T36G, T32A T36C is lower in fraction ligated: 0.00433 for the first, 0.00204 for the second.

First: T32A T36A
Second: A31G T32A
The fraction ligated of the first is lower: 0.00173 for the first, 0.073 for the second.

First: A31G T32C
Second: A31G T32G
The fraction ligated of the first is lower: 0.00833 for the first, 0.0239 for the second.

First: T32G G42A
Second: T32G G42C
The fraction ligated of the first is lower: 0.00352 for the first, 0.00582 for the second.

First: T32G G42T
Second: T32C A35C
The fraction ligated of the first is lower: 0.00243 for the first, 0.00582 for the second.

First: T32C A35T
Second: T32C A35G
The fraction ligated of the first is lower: 0.0031 for the first, 0.00362 for the second.

First: T36C G37T
Second: T36C G37A
The fraction ligated of the first is higher: 0.00876 for the first, 0.00566 for the second.

Compared with T36C G37C, G33C T36G is higher in fraction ligated: 0.0038 for the first, 0.0305 for the second.

Compared with G33C T36C, G33C T36A is higher in fraction ligated: 0.00989 for the first, 0.0174 for the second.

Compared with G33A A35T, G33A A35C is higher in fraction ligated: 0.0202 for the first, 0.026 for the second.

First: G33A A35G
Second: A31T T32A
The fraction ligated of the first is higher: 0.265 for the first, 0.0898 for the second.

Going from A31T T32C to A31T T32G, the fraction ligated falls from 0.0483 to 0.0242.

Going from G34T A35G to G34T A35C, the fraction ligated falls from 0.0067 to 0.00324.

Going from G34T A35T to T32A G42A, the fraction ligated falls from 0.00561 to 0.00239.

Compared with T32A G42T, T32A G42C is lower in fraction ligated: 0.00743 for the first, 0.00255 for the second.

Going from T32G T36A to T32G T36C, the fraction ligated falls from 0.00414 to 0.00404.

Compared with T32G T36G, T32G G34T is lower in fraction ligated: 0.00871 for the first, 0.00509 for the second.

Compared with T32G G34C, T32G G34A is lower in fraction ligated: 0.00552 for the first, 0.0029 for the second.

Going from A31T A44C to A31T A44T, the fraction ligated rises from 0.745 to 0.814.

Going from A31T A44G to T36A G42T, the fraction ligated falls from 0.82 to 0.00416.

Compared with T36A G42A, T36A G42C is higher in fraction ligated: 0.00342 for the first, 0.0064 for the second.

First: A31G T36A
Second: A31G T36G
The fraction ligated of the first is lower: 0.0331 for the first, 0.0415 for the second.

Going from A31G T36C to G34A, the fraction ligated rises from 0.0127 to 0.0464.

Going from G34C to G34T, the fraction ligated rises from 0.00469 to 0.00484.

First: T32A G34C
Second: T32A G34T
The fraction ligated of the first is lower: 0.0031 for the first, 0.00436 for the second.

First: T32A G34A
Second: G33T A43T
The fraction ligated of the first is lower: 0.00575 for the first, 0.0265 for the second.

First: G33T A43C
Second: G33T A43G
The fraction ligated of the first is higher: 0.0254 for the first, 0.0169 for the second.

Going from T32G to T32C, the fraction ligated rises from 0.02 to 0.0302.

Going from T32A to G34C G42C, the fraction ligated falls from 0.0612 to 0.00271.

Going from G34C G42T to G34C G42A, the fraction ligated falls from 0.00284 to 0.00229.

Compared with A35C A43G, A35C A43T is lower in fraction ligated: 0.00754 for the first, 0.00614 for the second.

Compared with A35C A43C, G37A G42T is lower in fraction ligated: 0.00377 for the first, 0.00089 for the second.

Going from G37A G42A to G37A G42C, the fraction ligated falls from 0.00332 to 0.00225.

First: A35T
Second: A35G
The fraction ligated of the first is lower: 0.037 for the first, 0.271 for the second.

Going from A35C to T36G G42C, the fraction ligated falls from 0.0267 to 0.00216.

Going from T36G G42A to T36G G42T, the fraction ligated falls from 0.00463 to 0.000662.

First: T32C A44G
Second: T32C A44C
The fraction ligated of the first is higher: 0.0172 for the first, 0.0116 for the second.

Compared with T32C A44T, A35C T36A is lower in fraction ligated: 0.0253 for the first, 0.00922 for the second.

First: A35C T36G
Second: A35C T36C
The fraction ligated of the first is higher: 0.00841 for the first, 0.00473 for the second.

First: G33T G34A
Second: G33T G34T
The fraction ligated of the first is higher: 0.051 for the first, 0.00514 for the second.

Compared with G33T G34C, G33A G42A is higher in fraction ligated: 0.00646 for the first, 0.228 for the second.

First: G33A G42C
Second: G33A G42T
The fraction ligated of the first is lower: 0.0145 for the first, 0.102 for the second.

Going from G34C T36C to G34C T36G, the fraction ligated rises from 0.00419 to 0.00561.

First: G34C T36A
Second: T32A G37T
The fraction ligated of the first is lower: 0.00257 for the first, 0.00279 for the second.

Compared with T32A G37C, T32A G37A is lower in fraction ligated: 0.00322 for the first, 0.000603 for the second.

Going from G37A A43C to G37A A43T, the fraction ligated rises from 0.00236 to 0.00461.

First: G37A A43G
Second: A35C G42T
The fraction ligated of the first is higher: 0.00388 for the first, 0.00281 for the second.

Compared with A35C G42A, A35C G42C is lower in fraction ligated: 0.00288 for the first, 0.00254 for the second.

First: T32A G33T
Second: T32A G33C
The fraction ligated of the first is higher: 0.0384 for the first, 0.0102 for the second.

Compared with T32A G33A, T36G A43G is lower in fraction ligated: 0.032 for the first, 0.00457 for the second.

Compared with T36G A43C, T36G A43T is higher in fraction ligated: 0.00461 for the first, 0.00809 for the second.

First: T32C G37T
Second: T32C G37C
The fraction ligated of the first is lower: 0.00216 for the first, 0.00446 for the second.

Going from T32C G37A to G37A A44C, the fraction ligated rises from 0.00241 to 0.00309.

First: G37A A44T
Second: G37A A44G
The fraction ligated of the first is higher: 0.00574 for the first, 0.00429 for the second.

First: G34A A43T
Second: G34A A43C
The fraction ligated of the first is higher: 0.00502 for the first, 0.00464 for the second.

Going from G34A A43G to G37C, the fraction ligated falls from 0.00716 to 0.00417.

Going from G37A to T36C A44T, the fraction ligated rises from 0.00659 to 0.0101.

First: T36C A44C
Second: T36C A44G
The fraction ligated of the first is lower: 0.00404 for the first, 0.00651 for the second.

Going from A31T to T36A A43G, the fraction ligated falls from 0.815 to 0.00353.

Compared with T36A A43C, T36A A43T is higher in fraction ligated: 0.0049 for the first, 0.00522 for the second.

First: T36G
Second: T36C
The fraction ligated of the first is higher: 0.0461 for the first, 0.0157 for the second.

First: T36A
Second: A31T T36A
The fraction ligated of the first is higher: 0.0309 for the first, 0.0236 for the second.

First: A31T T36G
Second: A31T T36C
The fraction ligated of the first is higher: 0.0351 for the first, 0.0101 for the second.

Going from A31G G42T to T36G A44G, the fraction ligated falls from 0.126 to 0.00979.

Going from T36G A44C to T36G A44T, the fraction ligated rises from 0.00345 to 0.0156.

Going from G34A A44G to G34A A44C, the fraction ligated falls from 0.019 to 0.008.

First: G34A A44T
Second: A31T A35C
The fraction ligated of the first is higher: 0.0265 for the first, 0.0159 for the second.

Going from A31T A35T to A31T A35G, the fraction ligated rises from 0.0356 to 0.339.

Going from G34C A44G to G34C A44T, the fraction ligated rises from 0.00318 to 0.00566.

Variant G34C A44C has a fraction ligated of 0.00339.
